From patent US20250277029A1 (Amgen, published 2025) come the findings set out here.

Experiment [1] has as its target human CB1 on stably transfected CB1 CHO cells (human, UniProt P21554 1-472). The experiment can be described thus: cell-based or functional assay.
The target in experiment [2] is T1, GFP-fused huCB1-SMALP (human, UniProt P21554 1-472).
T1 construct: Human CB1 fused to GFP in styrene maleic acid lipoparticles, made as in Luna et al. 2018; also called huCB1-GFP-SMALP; GFP-tagged huCB1-SMALP; not shown: GFP fused to huCB1
The experiment can be described thus: flow cytometry, yeast-displayed Fab, 10 nM CB1 SMALP. Background: In flow cytometry, cells or beads pass a laser one at a time.

For another experiment, the target named is T2, His-tagged huCB1-ND (human, UniProt P21554 99-414, limits assumed).
T2 construct: The real construct may be truncated or engineered; also called CB1-nanodisc; not shown: histidine purification tag
The experiment can be described thus: flow cytometry, yeast-displayed Fab, 0.5 nM CB1 ND.

A further experiment concerns the target T3, Empty ND.
T3 construct: It carries no receptor; the scaffold is its only protein; also called empty nanodisc
Description: flow cytometry, yeast-displayed Fab, 50 nM Empty ND.

Experiment [3] has as its target T1, GFP-fused huCB1-SMALP. The experiment can be described thus: flow cytometry, yeast-displayed Fab, 5 nM CB1 SMALP.

T2 sequence (P21554 99-414 limits assumed): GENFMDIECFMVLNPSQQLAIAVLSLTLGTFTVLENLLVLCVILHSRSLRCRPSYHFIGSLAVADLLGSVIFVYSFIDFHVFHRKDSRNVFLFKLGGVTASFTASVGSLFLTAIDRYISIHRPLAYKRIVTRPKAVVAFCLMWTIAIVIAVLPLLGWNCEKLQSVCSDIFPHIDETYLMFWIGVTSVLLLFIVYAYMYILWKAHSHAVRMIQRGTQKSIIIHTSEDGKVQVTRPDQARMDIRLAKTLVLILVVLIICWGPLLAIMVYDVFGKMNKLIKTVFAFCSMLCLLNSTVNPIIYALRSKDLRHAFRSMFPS
T1 sequence (P21554 whole entry, the tested form may be a part): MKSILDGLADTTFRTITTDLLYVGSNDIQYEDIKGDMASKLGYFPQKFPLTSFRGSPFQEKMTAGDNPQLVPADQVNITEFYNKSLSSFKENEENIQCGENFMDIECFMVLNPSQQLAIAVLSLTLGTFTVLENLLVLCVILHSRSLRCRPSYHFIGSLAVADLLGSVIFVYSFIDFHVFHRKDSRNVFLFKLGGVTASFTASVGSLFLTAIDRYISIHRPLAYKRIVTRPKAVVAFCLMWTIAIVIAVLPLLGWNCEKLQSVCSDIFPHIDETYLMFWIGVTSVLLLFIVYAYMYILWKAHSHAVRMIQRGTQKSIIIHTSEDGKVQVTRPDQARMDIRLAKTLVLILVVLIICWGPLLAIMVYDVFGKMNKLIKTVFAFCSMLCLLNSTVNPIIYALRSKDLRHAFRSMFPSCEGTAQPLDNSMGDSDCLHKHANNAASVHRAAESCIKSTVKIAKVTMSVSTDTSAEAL
Chain of human CB1 on stably transfected CB1 CHO cells (P21554 whole entry, the tested form may be a part): as above

B1: LIBC673965-1 (IgG1 SEFL2 mAb) (antibody, V domains shown)
VH: QVQLQESGPGLVKPSQTLSLTCTVSGGSIRRGGDYWSWIRQHPGKGLEWIGHVYYTGQTAYNPSLRGRVRISVNTYKNQFSLKLSSVTAADTAVYYCARGYDTSGYSYYYYGLDVWGQGTTVTVSS
VL: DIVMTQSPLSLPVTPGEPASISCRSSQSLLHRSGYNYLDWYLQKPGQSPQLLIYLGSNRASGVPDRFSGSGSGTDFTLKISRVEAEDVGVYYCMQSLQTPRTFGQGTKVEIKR
On to B1, for which the “IC50 (nM, n = 4), antagonist activity, TR-FRET cAMP assay” value (shortened to “IC50 (nM, n = 4), antagonist activity”) in experiment [1] was found to be 2.21 nM.

B2: LIBC673972-1 (IgG1 SEFL2 mAb) (antibody, V domains shown)
VH: QVQLQESGPGLVKPSQTLSLTCTVSGGSIRRGGDYWSWIRQHPGKGLEWIGHIYYTGQTAYNPNLRNRVRISVNTYKNQFSLKLSSVTAADTAVYYCARGYDASGYSYYYYGLDVWGQGTTVTVSS
VL: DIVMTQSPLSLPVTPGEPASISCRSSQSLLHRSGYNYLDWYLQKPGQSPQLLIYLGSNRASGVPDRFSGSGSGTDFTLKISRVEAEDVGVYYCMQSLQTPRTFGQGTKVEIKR
Consider B2, for which, in experiment [1], the “IC50 (nM, n = 4), antagonist activity” value was 2.43 nM.

B3: LIBC673982-1 (IgG1 SEFL2 mAb) (antibody, V domains shown)
VH: QVQLQESGPGLVKPSQTLSLTCTVSGGSIRRGGDYWSWIRQHPGKGLEWIGHIYYTGSTTYNPSFRGRVRISVNTYKNQFSLKLSSVTAADTAVYYCARDYDISGYSYYYYGMDVWGQGTTVTVSS
VL: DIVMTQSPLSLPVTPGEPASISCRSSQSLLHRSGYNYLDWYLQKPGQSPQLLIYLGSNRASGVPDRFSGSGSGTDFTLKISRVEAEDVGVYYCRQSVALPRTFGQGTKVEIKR
Turning to B3, in experiment [1], the “IC50 (nM, n = 4), antagonist activity” value is 2.11 nM.

B4: LIBC674229-1 (Fab on yeast) (Fab, V domains shown)
VH: QVQLQESGPGLVKPSQTLSLTCTVSGGSIRRGGDYWSWIRQHPGKGLEWIGHIYQTGQTKYNPSFKGRVRISVNTYKNQFSLKLSSVTAADTAVYYCARGYDVSGYSYYYYGMDVWGQGTTVTVSS
VL: DIVMTQSPLSLPVTPGEPASISCRSSQSLLHRSGYNYLDWYLQKPGQSPQLLIYQGSNRASGVPDRFSGSGSGTDFTLKISRVEAEDVGVYYCMQSLQTPRTFGQGTKVEIKR
notes: Clone of the Fab-yeast libraries
On to B4, for which the “relative binding fold change compared to LIBC523797-1(Fab)” value (from here on “relative binding fold change”) with GFP-fused huCB1-SMALP [2] was determined as 3.17 fold; with His-tagged huCB1-ND, 2.22 fold; with Empty ND, 0.75 fold; with GFP-fused huCB1-SMALP [3] it was 1.11 fold.

B5: LIBC674216-1 (Fab on yeast) (Fab, V domains shown)
VH: QVQLQESGPGLVKPSQTLSLTCTVSGGSIRRGGDYWSWIRQHPGKGLEWIGHIYYTGQTAYNPSLRNRVRISVNTYKNQFSLKLSSVTAADTAVYYCARGYDISGYSYYYYGLDVWGQGTTVTVSS
VL: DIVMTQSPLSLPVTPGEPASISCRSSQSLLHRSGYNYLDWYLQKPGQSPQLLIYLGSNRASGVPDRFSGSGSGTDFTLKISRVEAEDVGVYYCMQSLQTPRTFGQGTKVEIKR
notes: as for B4
Turning to B5, the “relative binding fold change” value with GFP-fused huCB1-SMALP [2] was found to be 1.96 fold; with His-tagged huCB1-ND it was 1.66 fold; in the experiment with Empty ND it was 0.65 fold; with GFP-fused huCB1-SMALP [3], 1.1 fold.

B6: LIBC674257-1 (Fab on yeast) (Fab, V domains shown)
VH: QVQLQESGPGLVKPSQTLSLTCTVSGGSIRRGGDYWSWIRQHPGKGLEWIGHIYYTGQTKYNPSLRGRVRISVNTYKNQFSLKLSSVTAADTAVYYCARGYDISGYSYYYYGLDVWGQGTTVTVSS
VL: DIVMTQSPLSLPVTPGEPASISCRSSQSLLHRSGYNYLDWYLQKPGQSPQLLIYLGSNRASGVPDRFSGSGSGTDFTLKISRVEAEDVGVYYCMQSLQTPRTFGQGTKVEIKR
notes: as for B4
As to B6, the “relative binding fold change” value is 3.34 fold in the experiment with GFP-fused huCB1-SMALP [2], 1.86 fold with His-tagged huCB1-ND, 0.73 fold with Empty ND and 1.19 fold with GFP-fused huCB1-SMALP [3].

B7: LIBC674276-1 (Fab on yeast) (Fab, V domains shown)
VH: QVQLQESGPGLVKPSQTLSLTCTVSGGSIRRGGDYWSWIRQHPGKGLEWIGHVYYTGSTTYNPNFKGRVRISVNTYKNQFSLKLSSVTAADTAVYYCARGYDASGYSYYYYGLDVWGQGTTVTVSS
VL: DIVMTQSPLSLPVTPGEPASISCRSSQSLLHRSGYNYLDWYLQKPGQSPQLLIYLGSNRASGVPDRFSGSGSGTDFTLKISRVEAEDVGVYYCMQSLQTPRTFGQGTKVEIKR
notes: as for B4
As for B7, the “relative binding fold change” value in the experiment with GFP-fused huCB1-SMALP [2] was 2.06 fold; with His-tagged huCB1-ND, 2.04 fold; with Empty ND, 0.51 fold; with GFP-fused huCB1-SMALP [3], 1.17 fold.

B8: LIBC674235-1 (Fab on yeast) (Fab, V domains shown)
VH: QVQLQESGPGLVKPSQTLSLTCTVSGGSIRRGGDYWSWIRQHPGKGLEWIGHVYYAGSTTYNPSLKSRVRISVNTYKNQFSLKLSSVTAADTAVYYCARGYDVSGYSYYYYGLDVWGQGTTVTVSS
VL: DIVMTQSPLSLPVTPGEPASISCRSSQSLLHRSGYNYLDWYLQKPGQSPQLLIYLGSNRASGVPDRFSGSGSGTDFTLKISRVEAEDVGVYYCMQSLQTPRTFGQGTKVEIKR
notes: as for B4
Regarding B8, the “relative binding fold change” value amounted to 2.05 fold in the experiment with GFP-fused huCB1-SMALP [2], 1.28 fold in the experiment with His-tagged huCB1-ND, 0.72 fold in the experiment with Empty ND and 1.3 fold with GFP-fused huCB1-SMALP [3].

B9: LIBC680562-1 (IgG1 SEFL2 mAb) (antibody, V domains shown)
VH: QVQLQESGPGLVKPSQTLSLTCTVSGGSIRRGGDYWAWIRQHPGKGLEWIGHIYQTGSTNYNPRFKGRATISVNTYKNQFSLKLSSVTAADTAVYYCARNYDTLTGYSYYYYGMDVWGQGTTVTVSS
VL: DIQMTQSPSSLSASVGDRVTITCRASQSISSYLNWYQQKPGKAPKLLIYSARRLSSGVPSRFSGSGSGTDFTLTISSLQPEDFATYYCQQYAKSPITFGGGTKVEIKR
Regarding B9, the “IC50 (nM, n = 4), antagonist activity” value in experiment [1] came out at 0.71 nM.

B10: LIBC680773-1 (IgG1 SEFL2 mAb) (antibody, V domains shown)
VH: QVQLQESGPGLVKPSQTLSLTCTVSGGSIRRGGDYWAWIRQHPGKGLEWIGHVYYTGSTNYNPRFKDRATISVNTYKNQFSLKLSSVTAADTAVYYCARNYDTVTGYSYYYYGMDVWGQGTTVTVSS
VL: DIQMTQSPSSLSASVGDRVTITCRASQSISSYLNWYQQKPGKAPKLLIYKARLLSSGVPSRFSGSGSGTDFTLTISSLQPEDFATYYCQQYSRLPLTFGGGTKVEIKR
With B10, the “IC50 (nM, n = 4), antagonist activity” value in experiment [1] stood at 0.74 nM.

B11: LIBC680800-1 (IgG1 SEFL2 mAb) (antibody, V domains shown)
VH: QVQLQESGPGLVKPSQTLSLTCTVSGGSIRRGGDYWAWIRQHPGKGLEWIGHIYQTGSTNYNPRFKGRATISVNTYKNQFSLKLSSVTAADTAVYYCARNYDTLTGYSYYYYGMDVWGQGTTVTVSS
VL: DIQMTQSPSSLSASVGDRVTITCRASQSISSYLNWYQQKPGKAPKLLIYSARALSSGVPSRFSGSGSGTDFTLTISSLQPEDFATYYCQQYRKFPLTFGGGTKVEIKR
Turning to B11, in experiment [1], the “IC50 (nM, n = 4), antagonist activity” value came out at 1.57 nM.

B12: LIBC673952-1 (IgG1 SEFL2 mAb) (antibody, V domains shown)
VH: QVQLQESGPGLVKPSQTLSLTCTVSGGSIRRGGDYWSWIRQHPGKGLEWIGHVYYTGQTTYNPSFRGRVTISVNTYKNQFSLKLSSVTAADTAVYYCARDYDILTGYSYYYYGLDVWGQGTTVTVSS
VL: DIVMTQSPLSLPVTPGEPASISCRSSQSLLHRSGYNYLDWYLQKPGQSPQLLIYQGSNRASGVPDRFSGSGSGTDFTLKISRVEAEDVGVYYCRQARALPRTFGQGTKVEIKR
Regarding B12, the “IC50 (nM, n = 4), antagonist activity” value in experiment [1] was 2.48 nM.

B13: LIBC673952-1 (Fab on yeast) (Fab, V domains shown)
VH: QVQLQESGPGLVKPSQTLSLTCTVSGGSIRRGGDYWSWIRQHPGKGLEWIGHVYYTGQTTYNPSFRGRVTISVNTYKNQFSLKLSSVTAADTAVYYCARDYDILTGYSYYYYGLDVWGQGTTVTVSS
VL: DIVMTQSPLSLPVTPGEPASISCRSSQSLLHRSGYNYLDWYLQKPGQSPQLLIYQGSNRASGVPDRFSGSGSGTDFTLKISRVEAEDVGVYYCRQARALPRTFGQGTKVEIKR
notes: as for B4
For B13, the “relative binding fold change” value with GFP-fused huCB1-SMALP [2] turned out to be 1.91 fold; in the experiment with His-tagged huCB1-ND it was 0.77 fold; with Empty ND, 0.62 fold; with GFP-fused huCB1-SMALP [3], 1.23 fold.

B14: LIBC680574-1 (IgG1 SEFL2 mAb) (antibody, V domains shown)
VH: QVQLQESGPGLVKPSQTLSLTCTVSGGSIRRGGDYWAWIRQHPGKGLEWIGHVYYTGSTKYNPSFKDRATISVNTYKNQFSLKLSSVTAADTAVYYCARNYDTLTGYSYYYYGMDVWGQGTTVTVSS
VL: DIQMTQSPSSLSASVGDRVTITCRASQSISSYLNWYQQKPGKAPKLLIYGARRLGSGVPSRFSGSGSGTDFTLTISSLQPEDFATYYCQQYSSLPVTFGGGTKVEIKR
With B14, the “IC50 (nM, n = 4), antagonist activity” value in experiment [1] stood at 0.75 nM.
